T1: FlhA (Salmonella enterica, UniProt P40729 1-692)
T1 construct: FlhA, Salmonella enterica, transmembrane export gate protein; source: Salmonella SJW1368, pTrc99A-based plasmid, in DDM- or LMNG-solubilised membranes; co-purified
T1 sequence: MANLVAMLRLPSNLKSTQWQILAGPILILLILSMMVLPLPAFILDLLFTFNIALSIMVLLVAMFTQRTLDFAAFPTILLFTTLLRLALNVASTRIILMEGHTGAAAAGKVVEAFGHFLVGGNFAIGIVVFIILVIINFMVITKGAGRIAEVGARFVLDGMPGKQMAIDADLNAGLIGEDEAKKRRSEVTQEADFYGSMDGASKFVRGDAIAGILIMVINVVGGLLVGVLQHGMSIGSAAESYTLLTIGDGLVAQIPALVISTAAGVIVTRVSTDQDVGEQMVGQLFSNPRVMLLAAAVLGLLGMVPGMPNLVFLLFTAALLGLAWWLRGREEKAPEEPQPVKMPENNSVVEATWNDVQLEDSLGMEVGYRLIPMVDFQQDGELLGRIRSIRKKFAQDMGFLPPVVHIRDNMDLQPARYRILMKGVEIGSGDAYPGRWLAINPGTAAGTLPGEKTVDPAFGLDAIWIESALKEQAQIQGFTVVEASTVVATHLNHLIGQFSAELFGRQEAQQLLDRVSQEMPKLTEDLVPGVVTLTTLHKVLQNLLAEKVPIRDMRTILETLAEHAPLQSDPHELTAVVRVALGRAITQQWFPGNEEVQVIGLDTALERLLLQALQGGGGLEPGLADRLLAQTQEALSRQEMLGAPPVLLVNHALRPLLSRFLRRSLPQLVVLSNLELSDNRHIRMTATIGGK

T2: FliR-FLAG (Salmonella enterica, UniProt P54702 1-264)
T2 construct: FliR, Salmonella enterica, transmembrane export gate protein; also called FLAG-FliR (as printed in the methods); source: Salmonella SJW1368, pTrc99A-based plasmid, in DDM- or LMNG-solubilised membranes; co-purified (Ni-NTA, anti-FLAG gel, SEC)
T2 sequence: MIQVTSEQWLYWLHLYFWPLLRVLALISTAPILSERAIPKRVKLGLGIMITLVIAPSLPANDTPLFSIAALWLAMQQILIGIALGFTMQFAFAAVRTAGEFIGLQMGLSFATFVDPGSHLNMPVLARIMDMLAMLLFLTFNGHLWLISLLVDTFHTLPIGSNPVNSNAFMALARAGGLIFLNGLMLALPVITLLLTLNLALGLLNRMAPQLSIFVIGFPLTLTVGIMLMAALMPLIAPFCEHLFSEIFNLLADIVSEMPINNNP

T3: FlhB (Salmonella enterica, UniProt P40727 1-383)
T3 construct: FlhB, Salmonella enterica, transmembrane export gate protein; its C-terminal cytoplasmic domain undergoes autocleavage between Asp-269 and Pro270 as printed; source: Salmonella SJW1368, pTrc99A-based plasmid, in DDM- or LMNG-solubilised membranes; co-purified
T3 sequence: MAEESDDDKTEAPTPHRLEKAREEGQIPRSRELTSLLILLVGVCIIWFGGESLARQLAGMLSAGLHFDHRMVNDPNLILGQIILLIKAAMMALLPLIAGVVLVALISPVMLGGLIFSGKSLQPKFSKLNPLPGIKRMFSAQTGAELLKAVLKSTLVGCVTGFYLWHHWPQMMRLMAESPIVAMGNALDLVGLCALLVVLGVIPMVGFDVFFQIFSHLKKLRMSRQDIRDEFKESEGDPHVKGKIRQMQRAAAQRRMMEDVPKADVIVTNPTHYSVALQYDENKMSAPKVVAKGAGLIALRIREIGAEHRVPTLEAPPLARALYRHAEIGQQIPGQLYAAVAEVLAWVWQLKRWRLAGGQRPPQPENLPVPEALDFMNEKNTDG

B1: HA-FliQ (natural protein)
chain: MTPESVMMMGTEAMKVALALAAPLLLVALITGLIISILQAATQINEMTLSFIPKIVAVFIAIIVAGPWMLNLLLDYVRTLFSNLPYIIG
notes: FliQ, Salmonella enterica, transmembrane export gate protein; source: Salmonella SJW1368, pTrc99A-based plasmid, in DDM- or LMNG-solubilised membranes; co-purified
B2: His-St-FliP (Salmonella FliP with a hexahistidine tag inserted between Gln-22 and Leu-23) (natural protein)
chain: QLPGLISQPLAGGGQSWSLSVQTLVFITSLTFLPAILLMMTSFTRIIIVFGLLRNALGTPSAPPNQVLLGLALFLTFFIMSPVIDKIYVDAYQPFSEQKISMQEALDKGAQPLRAFMLRQTREADLALFARLANSGPLQGPEAVPMRILLPAYVTSELKTAFQIGFTIFIPFLIIDLVIASVLMALGMMMVPPATIALPFKLMLFVLVDGWQLLMGSLAQSFYS
notes: FliP, Salmonella enterica, 25-kDa transmembrane protein; mature form studied; the signal peptide (Met-1 to Gln-22) is cleaved during membrane insertion; tag LHHHHHH inserted between Gln-22 and Leu-23; Hexameric ring in SEC peak 2; also called His-FliP; FliP6 ring; source: Salmonella SJW1368, membranes solubilised with 1% DDM or 1% LMNG; purified (Ni-NTA, SEC); not shown: His6 (LHHHHHH), internal …

Experiments:
[1] = molecular target: B2; experiment: pull-down; Ni-NTA copurification with His-FliP from SJW1368 co-expressing FlhA, FlhB, FliO, His-FliP, HA-FliQ and FliR-FLAG; membranes solubilised with 1% LMNG; immunoblot (lane L of Fig 6B); conditions: partners not purified
[2] = molecular target: the molecule itself; experiment: negative-stain electron microscopy with 2D class averaging; purified SEC peak fractions, 1.0% uranyl acetate, 100 kV; autocorrelation analysis for the rotational symmetry of the FliP ring
[3] = molecular target: T1, FlhA; experiment: pull-down; Ni-NTA copurification with His-FliP from SJW1368 co-expressing FlhA, FlhB, FliO, His-FliP, HA-FliQ and FliR-FLAG; membranes solubilised with 1% LMNG; immunoblot (lane L of Fig 6B); conditions: partners not purified
[4] = molecular target: T2, FliR-FLAG; experiment: pull-down; copurification from Salmonella SJW1368 co-expressing His-FliP with other export gate proteins; membranes solubilised with 1% DDM; Ni affinity, then anti-FLAG M2 affinity (eluted with FLAG peptide), then SEC on Superdex 200 10/300; SDS-PAGE with CBB; conditions: partners not purified
[5] = molecular target: T3, FlhB; experiment: as above; conditions: partners not purified
[6] = molecular target: the molecule itself; experiment: SEC; Ni-purified His-FliP or FliO/His-FliP complexes (wild type and mutants) on Superdex 200 10/300; 20 mM Tris-HCl pH 8.0, 300 mM NaCl, 2 mM EDTA, 5% glycerol, 0.1% DDM

Binder | binding result [1] | stoichiometry N [2] | binding result [3] | binding result [4] | binding result [5] | stoichiometry N [6]
B1 | binds |  |  |  |  | 
B2 |  | 6 | binds | binds | binds | 2
